Assay: soluble on expression in E. coli; label from the status in PepcDB or PDB records

| Sequence | soluble on expression in E. coli |
| --- | --- |
| MTVNAKTSPSAGNTWRDLPAAQQPEYPDTEALRAVIADLESYPPLVFAGECDQLRARMAAVAKGEAFLLQGGDCAEAFDAVSADHIRNKLKTLLQMGAVLTYAASVPVVKVGRIAGQYSKPRSKPTETRDGVTLPTYRGDSVNGFDFTEAARIPDPERLKRMYHASASTLNLVRAFTTGGYADLRQVHAWNQDFVKSSPSGQRYEQLAREIDNALNFMRACGTDPAEFQTVEFFSSHEALLLDYESALTRVDSRTGQLYDVSGHMVWIGERTRQLDHAHIEFASRIRNPIGIKLGPSTTAEEALQYIERLDPEREPGRLTFIVRMGADKIRDKLPELVEKVTASGATVAWITDPMHGNTYEAASGHKTRRFDDVLDEVKGFFEVHKSLGTHPGGIHVELTGDDVTECVGGGDEIFVDDLHQRYETACDPRLNRSQSLDLAFLVAEMYRDQ | not soluble |
| GSDELKWNKGYSLPNLLEVTDQQKELSQWTLGDKVKLEEGRFVLTPGKNTKGSLWLKPEYSIKDAMTIEWTFRSFGFRGSTKGGLAFWLKQGNEGDSTELFGGSSKKFNGLMILLRLDDKLGESVTAYLNDGTKDLDIESSPYFASCLFQYQDSMVPSTLRLTYNPLDNHLLKLQMDNRVCFQTRKVKFMGSSPFRIGTSAINDASKESFEILKMKLYDGVIEDSL | soluble |
| MITLTKKQMEEMLAHARQALPNEACGLLGGRRDGDDRWVERVYPLNNLDQSPEHFSMDPREQLTAVKDMRKNGWVMLGNFHSHPATPARPSAEDKRLAFDPSLSYLIISLAEPQKPVCKSFLIKKDGVDEEEIILKEELEHHHHHH | soluble |
| MRGSHHHHHHTDPALRAKPENKLPVLDLISAEMKTVVNTLQPDLPPWPATGTIAEQRQYYTLERRFWNAGAPEMATRAYMVPTKYGQVETRLFCPQPDSPATLFYLHGGGFILGNLDTHDRIMRLLASYSQCTVIGIDYTLSPEARFPQAIEEIVAACCYFHQQAEDYQINMSRIGFAGDSAGAMLALASALWLRDKQIDCGKVAGVLLWYGLYGLRDSVTRRLLGGVWDGLTQQDLQMYEEAYLSNDADRESPYYCLFNNDLTREVPPCFIAGAEFDPLLDDSRLLYQTLAAHQQPCEFKLYPGTLHAFLHYSRMMKTADEALRDGAQFFTAQLGLCGR | soluble |
| MKQSLFGRVRDAILADFHNVLDEKERKNPIAMLNQYLRDSEREITKIEKLIERHKTLKSNFARELEQARYFVNKRSKQAIIAQEADELQLHERALEEVAYYEGQVTRLEEMYAGVVEQIDELERRLSEMKNKLKEMHAKRMELMARENMAHANRRMNTAMHKMDENNPFLRFEEIEDHIRDLETRMNEEHERDTFDMKIAKLEREMKEKNDVSLTKELTKLEHHHHHH | soluble |
| MDPELQCIRECRLAQLKNNSGGTNGDRNSGANNGGGENSAPVGAAIANFLEPQALERLSRVALVRRDRAQAVETYLKKLIATNNVTHKITEAEIVSILNGIAKQQNSQNNSKIIFEAAALEHHHHHH | soluble |
| MGSDKIHHHHHHMRRSSVFAGSDGQLDLFVGAGSNIAARDAQDLMAWPFFSLAKTKRVRPIDFRMGEVSILVEATAEHGMATIWDADVLIWVASQIVEARDCGRSTSRLIAATPHEILSFTRRGTGKASYERLKAGLDRLQSTTVATSIRQPHQRRRHRFSWINEWRECLDSSGRALGIEMIVPDWFYEGVLDAALVLTIDRAYFGLTGGLERWLYRIVRKHGGKQKGGWSFDVAHLHLKSGALSPLKRFAFELRDIVRRQPLPGYRLELEHALGRERLSFVCIPEDSFDAAMRRLGYSGVDNP | not soluble |
| MGSDKIHHHHHHMLDCHEDTLVILAKNIAVEMHYHHAIQLVLSLDKPYDAVLDHQPIESVKGFLIDSDIPHACQSADSTVLVISVDASSSKGRLLKSHLLKRTFILIDELFSAEAIDEFLNFYWRCCDTSQHEFDPLYFLHKLSHEQRNITPFDARLLIAIDFINQDISQIIKVIDIARHISLSESRLRHLFTEQVGIPLTKYVLWVRMKVALREMLKPGVTLSDAAHQAGFTDHAHFTRTFRRMFGVSPSLLLKYGQFLQIFGL | not soluble |
| MSPDQKHRYKLYYVNMRGRAEPIRLVFHFLGVDFEDYRMDKGDFTGAMKDKAPMKQLPFIEIDGGKTTLCQTVSICRYLAKSIQPDRWFGGATKTDSAKVDMMADGFADLFQLAAMAKYAPDPIKDSMMGTYKESIGPKLENMQDLLKKSKGEYFVGKSIHWCDVYILGVLQALDESDDGVFDNLPELREYYLRMRNLPELKEYIDANWPETKYKE | not soluble |
| MVRVVRHSRGTCNRGLYEVRELARNRTLQQWGVEDSAELYGIRNWGAGYFDVAQNGDVVVYPFGHNRGPAVSIPEIIGGMRERGYDMPVLLRIENILDSQITSLHTSFRNAIGSLGYKGEYRGIFPIKVNQQQQVVEKIAQFGSHYHHGLEVGSKAELIAAVSQLRDREACLVCNGYKDEEFIDLGLHAVRLGFMCIFVLEMPGELDLILERGEALGVKPIIGVRAKLSVKAGGHWTDSGGERSTFGLTTSQIVDVVDRLKEKGMLDCFKLLHYHLGSQVPNIRDIRAAVMEACRIYAGLVQEGAAMGFLDLGGGLAVDYDGSHTNFVSSRNYTLDEYCADIVEAVMTTLDEQNIPHPHIVTESGRATVAYYSMLLFNILDVSRVEIGNLPDALPEDTPEPVRNMREVLAGMTLRNLQECYNDALYYRDAVRQLFLTGQVTLRQRTLSERLFWAIMKRIAQEKQKLKHVPKDLAEIDVALADIYYGNFSVFQSLPDSWAIDQLFPVMPVHRLQELPSRQGILSDITCDSDGRIDHFIDPQGMKGTLDLHPLRDGEEYYLGVFLVGAYQETLGDLHNLLGDTNVVSVRVHEDGTYEFVREIRGDSVADILSYVEYDPRRIYEDIRELAERAVREGRITASDRFRVMQAYEDGLRGYTYFERLEHHHHHH | not soluble |
| TDYAVTALRAWTRPLNYDIEHVYRITLATVQKDKDGKWKERSADQGKTMMQTLDLIAAYPGVEAACLQQWGGHYSSSSSNSSFQLDTVSLINVEDRMVSPDYFRVFRVYGADGSSPEEMAERFGKLHMNDLQRDYYLSRNALDYVEKVNGEGRESDRRYIGMSDSINYNMVSVVDGVQSEKSIRYNQTLRGLIPDQPKNEAESTGYISLKPITEEYISQNELISYSVYLRVSPEADTPDFKEQFVKRMKAVTKDDTYPVLTMNAVSEDRAGILADPVRQINNH | not soluble |
| MKLIVSGKNLEVTEGLREAVEKQISKLEKYFKPEVEAHVTLSVEKNRQIVEVTIPFNGVILRGEETNNDMYASIDIVGDKLERQVRKQKTKLERRKYSDSLKFQNIPDYHKEEQEPEIVKTKRFAIKPMSEEEAVLEMELLGHNFFVFQNGDSNEVNVVYKRKDGNYGLIEPEFLEHHHHHH | soluble |
| MGSDKIHHHHHHMSKNNNPVEQLLKEKPYILLDGALATELERHGRNLDDPLWSARVLLEEPEQIHRVHANYFKIGADCAITSSYQASVAGFSSRGIKEEEAIELMKQTVYLAQQARAETGPAADHALIAGSIGPYGAYLSDGSEYIGHYGVDDAQLEAFHRPRLEALIAAGADVLAFETIPSLQEAKMLFRLLEEFPEQSAWLAFSLRDATHISEGTPLSECIEALGDHPQLAAIGANCFPASIATEFITTLKQLTDVPIIVYPNSGEQYDPVSKTWSGETVRTAFEDIAPEWYAAGARLIGGCCRTTPEQIGEIRKIVHAQ | not soluble |
| MKTITLYLDPASLPALNQLMDFTQNNEDKTHPRIFGLSRFKIPDNIITQYQNIHFVELKDNRPTEALFTILDQYPGNIELNIHLNIAHSVQLIRPILAYRFKHLDRVSIQQLNLYDDGSMEYVDLEKEENKDISAEIKQAEKQLSHYLLTGKIKFDNPTIARYVWQSAFPVKYHFLSTDYFEKAEFLQPLKEYLAENYQKMDWTAYQQLTPEQQAFYLTLVGFNDEVKQSLEVQQAKFIFTGTTTWEGNTEVREYYAQQQLNLLNHFTQAEGDLFIGDHYKIYFKGHPRGGEINDIILNNAKNITNIPANISFEVLMMTGLLPDKVGGVASSLYFSLPKEKISHIIFTSNKQVKSKEDALNNPYVKVMRRLGIIDESQVIFWDSLKELGGG | soluble |
| MGHHHHHHSHNQYPAELMRRFELYFQGPSSNKPRVIREVRADSVGKLVTVRGIVTRVSEVKPKMVVATYTCDQCGAETYQPIQSPTFMPLIMCPSQECQTNRSGGRLYLQTRGSRFIKFQEMKMQEHSDQVPVGNIPRSITVLVEGENTRIAQPGDHVSVTGIFLPILRTGFRQVVQGLLSETYLEAHRIVKMNKSEDDESGAGELTREELRQIAEEDFYEKLAASIAP | not soluble |
| HHHHHHLQGAAPTATVTPSSGLSDGTVVKVAGAGLQAGTAYDVGQCAWVDTGVLACNPADFSSVTADANGSASTSLTVRRSFEGFLFDGTRWGTVDCTTAACQVGLSDAAGNGPEGVAISFN | soluble |
| MAQFSIFPEQNSLQDLLNIHSVQEDTQYKSMGIYDLKTCEIPMRPPTHQNPAQKEHNTMEDEMMAVLNSFSRRIEIMSAPEPKAFRYYFEISPPPKPEAPKSQLGLGDLSEESYPLTPEPIQLDTCLTWSPVELQFDPFAEPEPIFYNEEMDSGPTPEPIPDIFESPRSEVEAVKMFRSEVIYEDFAEE | not soluble |
| MKKRILSAVLVSGVTLSAAASVHAEDYDSQIAATNNAISNLASQQEAAQAQVATIQSQVSTLRTQKTELEAKNAELEKVSADLESEIQELSSKIVARQDSLAKQARSAQQNNTATSYINSILNSKSISEAITRITAISKVVTANNDLLTKQESDQKELAAKQEENQAAINTIAANKSELETTEAGLTTQQAELEAAQVTLAAELATAQNEKTSLVSAKSTAESVAASTAASVAQSQAIAESEATAQVVASSEAATSVASSEVAATSEAVAQPSETPVSETSTASEAAQEPASSETSEVQPESAAPAVSEAPASVAPVATSEAAPATSEAPASVAPVATSEAAPAVSEAPAPAAETHKVSAASTPNTYPVGQCTWGVKSLAPWAGNNWGNAKNWIASAQAAGHSVGTTPVAGAIAVWPNDGGGYGHVAYVTSASGANSIQVMESNYAGNMSISNYRGTFDPTSSAHGGSVFYIYPLEHHHHHH | soluble |
| MDLPDPYLPGAISLFEQLDKKLLVVLRDGRKLIGFLRSIDQFANLILEDVVERTFVEKYFCETGQGFMLIRGENVELAGEIDDTIETGLTQVSPEEFRRLEDEYIAKNPPKFLKRQAEKTEEHDA | not soluble |
| MVLFTGKTVEEAIETGLQELGLSRLKAHIKVISKEKKGFLGFGKKPAQVDIEGISDKTVYKADKKATRGVPEDINRQNTPAVNSADVEPEEIKATQRLEAEDTKVVPLMSEDSPAQTPSNLAETVTETKAQQPSIPVEESEVPQDAGNDGFSKDIEKAAQEVSDYVTKIIYEMDIEATVETSNNRRQINLQIETPEAGRVIGYHGKVLKSLQLLAQNFLHDRYSKNFSVSLNVHDYVEHRTETLIDFTQKVAKRVLESGQDYTMDPMSNSERKIVHKTVSSIEGVDSYSEGNDPNRYVVVSLQR | not soluble |
| MSNIPKELKYTKSHEWVKIDGDEVTVGITAHAQSLLGDLVYVELPEIGKEFAAGDDSCVVESVKAASDVYAPVDGEVIEINEALVDDPSRVNHTPYKDGWLFKLKISDESQLADLLTADAYAKTLED | not soluble |
| MFNKVIMVGRLTRNVELKYLPSGSAAATIGLATSRRFKKQDGTLGEEVCFIDARLFGRTAEIANQYLSKGSSVLIEGRLTYESWMDQTGKKNSRHTITADSLQFMDKKSDNPQANAMQDSIMHENSNNAYPANH | soluble |
| MDELFTESAKAVLAIAQEEAKYFRHQSVGSEHLLLALVLEPNGIAGKTLRQLNTDTEDIREEIEHLSGYGTMQSPMGNNNLYLPYSPRAKQIFAYAGDEAKRLGAQKIGTEHLLLGLLRDEEILASRILVNLGLSLSKMRQLLLKKMG | soluble |
| PLKIGPPGHRYAFPLYSSKNLERDDLRGIRRLVIVLHGVKRNAASIHGTVTALFAANPERAEDTLVIAPKFASAIDAGFAAMPAWRRASWEDGELSMQARGRPAPVSSLQVLDDLLRELSDSSRLPALRTIVLAGHSGGAQLVQRYAVLNSLDETL | not soluble |
